Results: paper PMC6600395, “p53 Binds Preferentially to Non-B DNA Structures Formed by the Pyrimidine-Rich Strands of GAA·TTC Trinucleotide Repeats Associated with Friedreich’s Ataxia”

What was measured:
p53CD (core domain) [1] = biological target: T1, p53CD (core domain) (human, UniProt P04637 94-312); assay: EMSA; no stable complex; 50 ng pBSK/SmaI; EMSA: 5 mM Tris-HCl pH 7.6, 0.5 mM EDTA, 0.5 mM DTT, 0.01% Triton X-100, 50 mM KCl, 15 min on ice (agarose 4 °C), pBSK/SmaI competitor in PAGE EMSA; ELISA: same without EDTA, 4 °C, 20 min; conditions: protein: recombinant, tags: GST (GST-p53CD, pGEX-4T), label: 5'-32P on Lock-F (EMSA), 3'-biotin on Lock-F (ELISA), lock clamp, 3' overhang 3 nt on lock strand
T1 sequence (P04637 94-312): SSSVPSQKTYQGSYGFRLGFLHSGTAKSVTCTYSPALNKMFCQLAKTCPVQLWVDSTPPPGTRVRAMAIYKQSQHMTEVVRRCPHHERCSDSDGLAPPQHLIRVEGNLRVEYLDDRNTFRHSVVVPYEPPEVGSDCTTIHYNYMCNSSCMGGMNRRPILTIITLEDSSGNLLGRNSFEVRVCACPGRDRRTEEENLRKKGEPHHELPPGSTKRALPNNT

[2] = biological target: p53CT (C-terminal segment) (human, UniProt P04637 320-393); assay: EMSA; 50 ng pBSK/SmaI competitor; EMSA: 5 mM Tris-HCl pH 7.6, 0.5 mM EDTA, 0.5 mM DTT, 0.01% Triton X-100, 50 mM KCl, 15 min on ice (agarose 4 °C), pBSK/SmaI competitor in PAGE EMSA; ELISA: same without EDTA, 4 °C, 20 min; conditions: protein: recombinant, tags: GST (GST-p53CT, pGEX-2TK), chain copies: 4, label: 5'-32P on Lock-F (EMSA), 3'-biotin on Lock-F (ELISA), lock clamp, 3' overhang 3 nt on lock strand
Sequence of p53CT (C-terminal segment) (P04637 320-393): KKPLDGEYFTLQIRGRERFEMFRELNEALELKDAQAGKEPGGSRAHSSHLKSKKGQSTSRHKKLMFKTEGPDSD

[3] = biological target: T2, p53 (wild type, full length) (human, UniProt P04637 1-393); assay: EMSA; 75 ng pBSK/SmaI competitor; EMSA: 5 mM Tris-HCl pH 7.6, 0.5 mM EDTA, 0.5 mM DTT, 0.01% Triton X-100, 50 mM KCl, 15 min on ice (agarose 4 °C), pBSK/SmaI competitor in PAGE EMSA; ELISA: same without EDTA, 4 °C, 20 min; conditions: protein: recombinant, tags: none stated for pT7-7wtp53 (Methods 3.3 says purified via GST tag), chain copies: 4, label: 5'-32P on Lock-F (EMSA), 3'-biotin on Lock-F (ELISA), lock clamp, 3' overhang 3 nt on lock strand
T2 sequence (P04637 whole entry): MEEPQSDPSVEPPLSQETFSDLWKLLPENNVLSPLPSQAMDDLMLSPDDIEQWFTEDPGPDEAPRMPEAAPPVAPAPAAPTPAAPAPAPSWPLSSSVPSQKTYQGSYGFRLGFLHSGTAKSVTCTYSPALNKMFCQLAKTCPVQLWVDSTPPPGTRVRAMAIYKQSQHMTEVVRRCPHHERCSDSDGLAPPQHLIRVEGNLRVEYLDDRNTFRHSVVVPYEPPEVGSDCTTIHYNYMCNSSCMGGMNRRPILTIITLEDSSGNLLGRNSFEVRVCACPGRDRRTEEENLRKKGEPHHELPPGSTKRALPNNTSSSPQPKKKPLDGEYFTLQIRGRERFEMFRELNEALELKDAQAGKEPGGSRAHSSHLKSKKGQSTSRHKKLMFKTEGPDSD

[4] = biological target: T2, p53 (wild type, full length); assay: ELISA; Kd only in figure; EMSA: 5 mM Tris-HCl pH 7.6, 0.5 mM EDTA, 0.5 mM DTT, 0.01% Triton X-100, 50 mM KCl, 15 min on ice (agarose 4 °C), pBSK/SmaI competitor in PAGE EMSA; ELISA: same without EDTA, 4 °C, 20 min; conditions: protein: recombinant; tags: none stated for pT7-7wtp53 (Methods 3.3 says purified via GST tag); chain copies: 4; label: 5'-32P on Lock-F (EMSA); 3'-biotin on Lock-F (ELISA); lock clamp, T loop in strand 1; 3' overhang 3 nt on lock strand
[5] = biological target: T2, p53 (wild type, full length); assay: EMSA; stronger than TTCNB and FXN-ANB; 50 ng pBSK/SmaI; EMSA: 5 mM Tris-HCl pH 7.6, 0.5 mM EDTA, 0.5 mM DTT, 0.01% Triton X-100, 50 mM KCl, 15 min on ice (agarose 4 °C), pBSK/SmaI competitor in PAGE EMSA; ELISA: same without EDTA, 4 °C, 20 min; conditions: protein: recombinant; tags: none stated for pT7-7wtp53 (Methods 3.3 says purified via GST tag); chain copies: 4; label: 5'-32P on Lock-F; lock clamp, Py-rich loop in strand 1; 3' overhang 3 nt on lock strand
p53CD (core domain) [6] = biological target: T1, p53CD (core domain); assay: EMSA; 50 ng pBSK/SmaI competitor; EMSA: 5 mM Tris-HCl pH 7.6, 0.5 mM EDTA, 0.5 mM DTT, 0.01% Triton X-100, 50 mM KCl, 15 min on ice (agarose 4 °C), pBSK/SmaI competitor in PAGE EMSA; ELISA: same without EDTA, 4 °C, 20 min; conditions: protein: recombinant; tags: GST (GST-p53CD, pGEX-4T); chain copies: 4; label: 32P (EMSA); biotin (ELISA); blunt
[7] = biological target: T2, p53 (wild type, full length); assay: EMSA; strongest binder; 75 ng pBSK/SmaI competitor; EMSA: 5 mM Tris-HCl pH 7.6, 0.5 mM EDTA, 0.5 mM DTT, 0.01% Triton X-100, 50 mM KCl, 15 min on ice (agarose 4 °C), pBSK/SmaI competitor in PAGE EMSA; ELISA: same without EDTA, 4 °C, 20 min; conditions: protein: recombinant; tags: none stated for pT7-7wtp53 (Methods 3.3 says purified via GST tag); chain copies: 4; label: 32P (EMSA); biotin (ELISA); blunt
[8] = unpaired (TTC)11 loop in strand 1

B1: CTGNB (structured_DNA)
DNA 1: GGGGCCTTAGGTACTGCTGCTGCTGCTGCTGCTGCTGCTGCTGCTGATGGTACCGCGG
DNA 2: CCGCGGTACCATTACCTAAGGCCCCAAC
p53CD (core domain) [1]; (CTG)11 hairpin in strand 1
  binding result: no binding
[2]; (CTG)11 hairpin in strand 1
  binding result: binds
[3]; (CTG)11 hairpin in strand 1
  binding result: binds

B2: TTCNB (structured_DNA)
DNA 1: GGGGCCTTAGGTATTCTTCTTCTTCTTCTTCTTCTTCTTCTTCTTCATGGTACCGCGG
DNA 2: CCGCGGTACCATTACCTAAGGCCCCAAC
p53CD (core domain) [1]; [8]
  binding result: no binding
[2]; [8]
  binding result: binds
[3]; [8]
  binding result: binds

B3: TNB (structured_DNA)
DNA 1: GGGGCCTTAGGTATTTTTTTTTTTTTTTTTTTTTTTTTTTTTTTTTATGGTACCGCGG
DNA 2: CCGCGGTACCATTACCTAAGGCCCCAAC
p53CD (core domain) [1]; T loop in strand 1
  binding result: no binding
[2]; T loop in strand 1
  binding result: binds
[4]
  binding result: binds

B4: FXN-TNB (structured_DNA)
DNA 1: GGGGCCTTAGGTATTTTCTTTATTTTCTTCTTCTTCTTCTTCTTTTTTTTTTTTTTTTGTATTTTTTATGGTACCGCGG
DNA 2: CCGCGGTACCATTACCTAAGGCCCCAAC
[5]
  binding result: binds

B5: CON (p53CON) (dsDNA)
DNA 1: GACGGTATCGATAAGAGACATGCCTAGACATGCCTCTTGATATCGAATTC
DNA 2: GAATTCGATATCAAGAGGCATGTCTAGGCATGTCTCTTATCGATACCGTC
p53CD (core domain) [6]
  binding result: binds
[7]
  binding result: binds
